For this assay, the system named is mutant form of α-Gal A expressed in HEK-293 cells. Description: HEK assay (GLP HEK / Migalastat Amenability Assay): α-Gal A activity in lysates of transiently transfected HEK-293 cells incubated with or without 10 μM migalastat. Format: cell-based, human. The conditions noted are these: for Absolute increase (% WT) / Relative increase: 10 μM migalastat versus baseline; for Baseline α-Gal A activity (% WT): absence of migalastat; for Baseline α-Gal A activity (% WT) / 10 μM migalastat α-Gal A activity (% WT): percentage of baseline wild-type α-Gal A activity; for Baseline α-Gal A activity (% WT) / Baseline α-Gal A activity / 10 μM migalastat α-Gal A activity / 10 μM migalastat α-Gal A activity (% WT): mean ± SEM; for Baseline α-Gal A activity / 10 μM migalastat α-Gal A activity: lysates of HEK-293 cells transiently transfected with the mutant form; for Baseline α-Gal A activity: incubated 5 days in absence of migalastat; for 10 μM migalastat α-Gal A activity: incubated 5 days with 10 μM migalastat; for 10 μM migalastat α-Gal A activity (% WT): with 10 μM migalastat, 5 days. In a few lines:
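Activity reported as 4-MU released (nmol/mg/hr), mean±SEM, from lysates of transiently transfected HEK-293 cells expressing mutant α-Gal A, cultured with or without 10 μM migalastat.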

B1: A307V (protein)
chain: MQLRNPELHLGCALALRFLALVSWDIPGARALDNGLARTPTMGWLHWERFMCNLDCQEEPDSCISEKLFMEMAELMVSEGWKDAGYEYLCIDDCWMAPQRDSEGRLQADPQRFPHGIRQLANYVHSKGLKLGIYADVGNKTCAGFPGSFGYYDIDAQTFADWGVDLLKFDGCYCDSLENLADGYKHMSLALNRTGRSIVYSCEWPLYMWPFQKPNYTEIRQYCNHWRNFADIDDSWKSIKSILDWTSFNQERIVDVAGPGGWNDPDMLVIGNFGLSWNQQVTQMALWAIMAAPLFMSNDLRHISPQVKALLQDKDVIAINQDPLGKQGYQLRQGDNFEVWERPLSGLAWAVAMINRQEIGGPRSYTIAVASLGKGVACNPACFITQLLPVKRKLGFYEWTSRLRSHINPTGTVLLQLENTMQMSLKDLL
For the molecule B1, the “Absolute increase (% WT)” value was 34.7 % WT, the Relative increase amounted to 2.3, the “Baseline α-Gal A activity (% WT)” value is recorded as 27.5 ± 2 % WT and the “Baseline α-Gal A activity” value turned out to be 11478 ± 1200 nmol/mg/h. Further, the “10 μM migalastat α-Gal A activity” value was 25989 ± 2015 nmol/mg/h and the “10 μM migalastat α-Gal A activity (% WT)” value amounted to 62.2 ± 3.3 % WT.

B2: K308I (protein)
chain: MQLRNPELHLGCALALRFLALVSWDIPGARALDNGLARTPTMGWLHWERFMCNLDCQEEPDSCISEKLFMEMAELMVSEGWKDAGYEYLCIDDCWMAPQRDSEGRLQADPQRFPHGIRQLANYVHSKGLKLGIYADVGNKTCAGFPGSFGYYDIDAQTFADWGVDLLKFDGCYCDSLENLADGYKHMSLALNRTGRSIVYSCEWPLYMWPFQKPNYTEIRQYCNHWRNFADIDDSWKSIKSILDWTSFNQERIVDVAGPGGWNDPDMLVIGNFGLSWNQQVTQMALWAIMAAPLFMSNDLRHISPQAIALLQDKDVIAINQDPLGKQGYQLRQGDNFEVWERPLSGLAWAVAMINRQEIGGPRSYTIAVASLGKGVACNPACFITQLLPVKRKLGFYEWTSRLRSHINPTGTVLLQLENTMQMSLKDLL
On to B2, for which the “Absolute increase (% WT)” value amounted to 24.2 % WT, the Relative increase stood at 1.5, the “Baseline α-Gal A activity (% WT)” value came to 48.6 ± 3.9 % WT and the “Baseline α-Gal A activity” value came to 19195 ± 1555 nmol/mg/h. In addition, the “10 μM migalastat α-Gal A activity” value came to 29251 ± 2026 nmol/mg/h and the “10 μM migalastat α-Gal A activity (% WT)” value came out at 72.7 ± 3.6 % WT.

B3: A309T (protein)
chain: MQLRNPELHLGCALALRFLALVSWDIPGARALDNGLARTPTMGWLHWERFMCNLDCQEEPDSCISEKLFMEMAELMVSEGWKDAGYEYLCIDDCWMAPQRDSEGRLQADPQRFPHGIRQLANYVHSKGLKLGIYADVGNKTCAGFPGSFGYYDIDAQTFADWGVDLLKFDGCYCDSLENLADGYKHMSLALNRTGRSIVYSCEWPLYMWPFQKPNYTEIRQYCNHWRNFADIDDSWKSIKSILDWTSFNQERIVDVAGPGGWNDPDMLVIGNFGLSWNQQVTQMALWAIMAAPLFMSNDLRHISPQAKTLLQDKDVIAINQDPLGKQGYQLRQGDNFEVWERPLSGLAWAVAMINRQEIGGPRSYTIAVASLGKGVACNPACFITQLLPVKRKLGFYEWTSRLRSHINPTGTVLLQLENTMQMSLKDLL
On to B3, for which the “Absolute increase (% WT)” value came out at 18.6 % WT, the Relative increase stood at 1.2, the “Baseline α-Gal A activity (% WT)” value is given as 74.1 ± 4.6 % WT and the “Baseline α-Gal A activity” value is 29214 ± 1907 nmol/mg/h. The “10 μM migalastat α-Gal A activity” value came to 36228 ± 1841 nmol/mg/h and the “10 μM migalastat α-Gal A activity (% WT)” value was 92.7 ± 4.8 % WT.

B4: L310I (protein)
chain: MQLRNPELHLGCALALRFLALVSWDIPGARALDNGLARTPTMGWLHWERFMCNLDCQEEPDSCISEKLFMEMAELMVSEGWKDAGYEYLCIDDCWMAPQRDSEGRLQADPQRFPHGIRQLANYVHSKGLKLGIYADVGNKTCAGFPGSFGYYDIDAQTFADWGVDLLKFDGCYCDSLENLADGYKHMSLALNRTGRSIVYSCEWPLYMWPFQKPNYTEIRQYCNHWRNFADIDDSWKSIKSILDWTSFNQERIVDVAGPGGWNDPDMLVIGNFGLSWNQQVTQMALWAIMAAPLFMSNDLRHISPQAKAILQDKDVIAINQDPLGKQGYQLRQGDNFEVWERPLSGLAWAVAMINRQEIGGPRSYTIAVASLGKGVACNPACFITQLLPVKRKLGFYEWTSRLRSHINPTGTVLLQLENTMQMSLKDLL
Turning to B4, the “Absolute increase (% WT)” value was found to be 19.6 % WT, the Relative increase turned out to be 1.3, the “Baseline α-Gal A activity (% WT)” value is reported as 72.8 ± 3.6 % WT and the “Baseline α-Gal A activity” value came out at 31871 ± 2599 nmol/mg/h. The “10 μM migalastat α-Gal A activity” value worked out at 40310 ± 3345 nmol/mg/h and the “10 μM migalastat α-Gal A activity (% WT)” value was found to be 92.4 ± 5.1 % WT.

B5: K308R (protein)
chain: MQLRNPELHLGCALALRFLALVSWDIPGARALDNGLARTPTMGWLHWERFMCNLDCQEEPDSCISEKLFMEMAELMVSEGWKDAGYEYLCIDDCWMAPQRDSEGRLQADPQRFPHGIRQLANYVHSKGLKLGIYADVGNKTCAGFPGSFGYYDIDAQTFADWGVDLLKFDGCYCDSLENLADGYKHMSLALNRTGRSIVYSCEWPLYMWPFQKPNYTEIRQYCNHWRNFADIDDSWKSIKSILDWTSFNQERIVDVAGPGGWNDPDMLVIGNFGLSWNQQVTQMALWAIMAAPLFMSNDLRHISPQARALLQDKDVIAINQDPLGKQGYQLRQGDNFEVWERPLSGLAWAVAMINRQEIGGPRSYTIAVASLGKGVACNPACFITQLLPVKRKLGFYEWTSRLRSHINPTGTVLLQLENTMQMSLKDLL
For the molecule B5, the “Absolute increase (% WT)” value came to 20.3 % WT, the Relative increase stood at 1.3, the “Baseline α-Gal A activity (% WT)” value is 68.9 ± 4.3 % WT and the “Baseline α-Gal A activity” value is 27103 ± 1767 nmol/mg/h. The “10 μM migalastat α-Gal A activity” value stood at 35824 ± 2438 nmol/mg/h and the “10 μM migalastat α-Gal A activity (% WT)” value was found to be 89.1 ± 4.5 % WT.

B6: A309D (protein)
chain: MQLRNPELHLGCALALRFLALVSWDIPGARALDNGLARTPTMGWLHWERFMCNLDCQEEPDSCISEKLFMEMAELMVSEGWKDAGYEYLCIDDCWMAPQRDSEGRLQADPQRFPHGIRQLANYVHSKGLKLGIYADVGNKTCAGFPGSFGYYDIDAQTFADWGVDLLKFDGCYCDSLENLADGYKHMSLALNRTGRSIVYSCEWPLYMWPFQKPNYTEIRQYCNHWRNFADIDDSWKSIKSILDWTSFNQERIVDVAGPGGWNDPDMLVIGNFGLSWNQQVTQMALWAIMAAPLFMSNDLRHISPQAKDLLQDKDVIAINQDPLGKQGYQLRQGDNFEVWERPLSGLAWAVAMINRQEIGGPRSYTIAVASLGKGVACNPACFITQLLPVKRKLGFYEWTSRLRSHINPTGTVLLQLENTMQMSLKDLL
As to B6, the “Absolute increase (% WT)” value turned out to be 17.6 % WT, the Relative increase was found to be 1.2, the “Baseline α-Gal A activity (% WT)” value came to 78.3 ± 5.2 % WT and the “Baseline α-Gal A activity” value is 31696 ± 3036 nmol/mg/h. In addition, the “10 μM migalastat α-Gal A activity” value turned out to be 38325 ± 2376 nmol/mg/h and the “10 μM migalastat α-Gal A activity (% WT)” value turned out to be 95.8 ± 3.7 % WT.

B7: L311I (protein)
chain: MQLRNPELHLGCALALRFLALVSWDIPGARALDNGLARTPTMGWLHWERFMCNLDCQEEPDSCISEKLFMEMAELMVSEGWKDAGYEYLCIDDCWMAPQRDSEGRLQADPQRFPHGIRQLANYVHSKGLKLGIYADVGNKTCAGFPGSFGYYDIDAQTFADWGVDLLKFDGCYCDSLENLADGYKHMSLALNRTGRSIVYSCEWPLYMWPFQKPNYTEIRQYCNHWRNFADIDDSWKSIKSILDWTSFNQERIVDVAGPGGWNDPDMLVIGNFGLSWNQQVTQMALWAIMAAPLFMSNDLRHISPQAKALIQDKDVIAINQDPLGKQGYQLRQGDNFEVWERPLSGLAWAVAMINRQEIGGPRSYTIAVASLGKGVACNPACFITQLLPVKRKLGFYEWTSRLRSHINPTGTVLLQLENTMQMSLKDLL
With B7, the “Absolute increase (% WT)” value is 23.2 % WT, the Relative increase was 2.9, the “Baseline α-Gal A activity (% WT)” value is listed as 12.1 ± 0.8 % WT and the “Baseline α-Gal A activity” value was determined as 4020 ± 235 nmol/mg/h. Moreover, the “10 μM migalastat α-Gal A activity” value came to 11558 ± 781 nmol/mg/h and the “10 μM migalastat α-Gal A activity (% WT)” value worked out at 35.3 ± 3.1 % WT.

B8: K308Q (protein)
chain: MQLRNPELHLGCALALRFLALVSWDIPGARALDNGLARTPTMGWLHWERFMCNLDCQEEPDSCISEKLFMEMAELMVSEGWKDAGYEYLCIDDCWMAPQRDSEGRLQADPQRFPHGIRQLANYVHSKGLKLGIYADVGNKTCAGFPGSFGYYDIDAQTFADWGVDLLKFDGCYCDSLENLADGYKHMSLALNRTGRSIVYSCEWPLYMWPFQKPNYTEIRQYCNHWRNFADIDDSWKSIKSILDWTSFNQERIVDVAGPGGWNDPDMLVIGNFGLSWNQQVTQMALWAIMAAPLFMSNDLRHISPQAQALLQDKDVIAINQDPLGKQGYQLRQGDNFEVWERPLSGLAWAVAMINRQEIGGPRSYTIAVASLGKGVACNPACFITQLLPVKRKLGFYEWTSRLRSHINPTGTVLLQLENTMQMSLKDLL
Take B8: the “Absolute increase (% WT)” value is 30.0 % WT, the Relative increase is reported as 1.5, the “Baseline α-Gal A activity (% WT)” value is on record as 59.1 ± 3.8 % WT and the “Baseline α-Gal A activity” value amounted to 24208 ± 1996 nmol/mg/h. Also, the “10 μM migalastat α-Gal A activity” value is 35663 ± 2680 nmol/mg/h and the “10 μM migalastat α-Gal A activity (% WT)” value came to 89.1 ± 5.5 % WT.
